Test results from patent publication US20100113367A1 (IPSEN PHARMA S A S, published 2010).
Numbered stars: 1 amine (or outer) side, 2 acyl side, 3 side chain; on linkers, the order of the positions; unused ones are H or OH. Bridge positions count the residues as written; N and C are the ends. Square brackets hold non-standard residues; d marks the D form. Pipz(1-CH2CO,4-CH2CH2NH) = O=C(CN1CCN(CCN[*:1])CC1)[*:2]; Tyr(3-I) = N[C@@H](Cc1ccc(O)c(I)c1)C(=O)O; Suc = O=C(CCC(=O)[*:2])[*:1]; Nle = CCCC[C@H](N)C(=O)O; rvGly = not defined here; Glut = not defined here; Abu = CC[C@H](N)C(=O)O; Apn = not defined here; AEEA = NCCOCCOCC(=O)O; Ahx = NCCCCCC(=O)O; GABA = NCCCC(=O)O; βAla = NCCC(=O)O

Key:
[1] = biological target: native bombesin/GRP receptor of AR42J rat pancreas cells (rat) (UniProt P52500); experiment: radioligand displacement, AR42J rat pancreas cell membranes, tracer [125I-Tyr4]bombesin
Chain of native bombesin/GRP receptor of AR42J rat pancreas cells (rat) (P52500 whole entry): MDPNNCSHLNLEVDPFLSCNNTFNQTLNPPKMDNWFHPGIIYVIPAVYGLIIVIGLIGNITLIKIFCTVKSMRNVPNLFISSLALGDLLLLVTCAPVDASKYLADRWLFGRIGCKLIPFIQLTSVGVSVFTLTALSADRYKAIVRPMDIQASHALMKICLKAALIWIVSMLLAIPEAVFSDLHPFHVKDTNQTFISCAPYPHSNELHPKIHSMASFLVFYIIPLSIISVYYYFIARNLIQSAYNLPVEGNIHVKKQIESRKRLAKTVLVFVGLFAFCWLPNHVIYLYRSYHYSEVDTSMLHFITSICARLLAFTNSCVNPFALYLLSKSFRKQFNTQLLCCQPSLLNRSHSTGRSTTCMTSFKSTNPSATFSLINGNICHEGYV

[2] = biological target: T1, native bombesin/GRP receptor of AR42J rat pancreas cells (rat, UniProt P52500 1-384); experiment: as above
T1 construct: whole, on cells; Used as membrane homogenate of AR42J cells; also called bombesin receptor
T1 sequence (P52500 whole entry): as above
Method: The homogenates were washed twice by centrifugation (39,000 g/10 minutes) and the final pellets were resuspended in 50 mM Tris-HCl containing 2.5 mM MgCl₂ and 0.1% BSA. For the assay, aliquots of membrane homogenate (0.4 ml) were incubated with 0.05 nM [¹²⁵I-Tyr4]bombesin (2200 Ci/mmol) (New England Nuclear®, Boston, Mass., U.S.A.) with and without 0.05 ml of unlabeled competing test peptides. After a 30 minute incubation period at 4° C., the bound [¹²⁵I-Tyr4]bombesin was separated from the free bombesin by rapid filtration through GF/B filters (Brandel®, Gaithersburg, Md., U.S.A.) which had been previously soaked in 0.3% polyethyleneimine. The filters were then washed three times with 5-ml aliquots of ice-cold 50 mM Tris-HCl. The bound radioactivity trapped on the filters was counted by gamma spectrometry (Wallac LKB®, Gaithersburg, Md., U.S.A.). Specific binding was defined as the total [¹²⁵I-Tyr4]bombesin bound minus that bound in the presence of 1000 nM bombesin (Bachem®, Torrence, Calif., U.S.A>).

[3] = biological target: human somatostatin receptor subtype hSSTR-5 (human) (UniProt P35346); experiment: radioligand displacement, CHO-K1 hSSTR-5 membranes, tracer m40
Chain of human somatostatin receptor subtype hSSTR-5 (human) (P35346 whole entry): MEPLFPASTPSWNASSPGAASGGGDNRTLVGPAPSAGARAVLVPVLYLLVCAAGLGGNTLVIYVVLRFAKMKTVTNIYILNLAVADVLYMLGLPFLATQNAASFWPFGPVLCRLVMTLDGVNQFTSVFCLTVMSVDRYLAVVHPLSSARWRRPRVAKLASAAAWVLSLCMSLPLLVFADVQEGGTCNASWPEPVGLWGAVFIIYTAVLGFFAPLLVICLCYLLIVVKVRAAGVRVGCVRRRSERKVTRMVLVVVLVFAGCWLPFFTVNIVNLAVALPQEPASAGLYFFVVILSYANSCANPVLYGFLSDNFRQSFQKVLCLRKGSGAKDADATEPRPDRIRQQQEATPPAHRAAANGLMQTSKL

[4] = biological target: human somatostatin receptor subtype hSSTR-3 (human) (UniProt P32745); experiment: radioligand displacement, CHO-K1 hSSTR-3 membranes, tracer [125I-Tyr11]SRIF-14
Chain of human somatostatin receptor subtype hSSTR-3 (human) (P32745 whole entry): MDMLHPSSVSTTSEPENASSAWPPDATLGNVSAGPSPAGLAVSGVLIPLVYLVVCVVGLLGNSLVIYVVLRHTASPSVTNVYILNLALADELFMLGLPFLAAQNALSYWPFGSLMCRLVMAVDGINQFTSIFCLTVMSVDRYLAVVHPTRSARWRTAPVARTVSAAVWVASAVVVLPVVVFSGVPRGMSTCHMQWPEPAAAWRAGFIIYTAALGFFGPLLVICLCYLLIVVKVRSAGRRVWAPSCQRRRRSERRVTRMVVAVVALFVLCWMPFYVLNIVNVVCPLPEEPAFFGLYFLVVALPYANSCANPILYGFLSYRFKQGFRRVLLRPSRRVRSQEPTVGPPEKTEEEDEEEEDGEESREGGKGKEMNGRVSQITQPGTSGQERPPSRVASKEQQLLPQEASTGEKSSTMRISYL

[5] = biological target: human somatostatin receptor subtype hSSTR-2 (human) (UniProt P30874); experiment: radioligand displacement, CHO-K1 hSSTR-2 membranes, tracer m39
Chain of human somatostatin receptor subtype hSSTR-2 (human) (P30874 whole entry): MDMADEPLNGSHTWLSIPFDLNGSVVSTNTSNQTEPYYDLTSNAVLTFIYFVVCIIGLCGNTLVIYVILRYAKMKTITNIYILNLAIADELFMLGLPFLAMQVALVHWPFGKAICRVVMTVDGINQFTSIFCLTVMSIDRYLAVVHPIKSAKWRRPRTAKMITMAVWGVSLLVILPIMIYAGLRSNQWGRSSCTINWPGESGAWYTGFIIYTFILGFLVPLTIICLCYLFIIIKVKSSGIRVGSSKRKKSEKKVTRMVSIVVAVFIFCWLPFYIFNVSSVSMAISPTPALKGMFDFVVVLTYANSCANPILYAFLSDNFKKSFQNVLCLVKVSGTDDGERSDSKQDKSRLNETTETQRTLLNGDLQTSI

## Camptothecin-[rvGly][Suc][AEEA][AEEA][AEEA][AEEA][Pipz(1-CH2CO,4-CH2CH2NH)][Ahx]QWAV[βAla]HL[Nle]-NH2 [Camptothecin-rvGly-Suc-(Doc)4-Aepa-Ahx-Gln-Trp-Ala-Val-β-Ala-His-Leu-Nle-NH2]
[1]
  Ki: 1.9 nM

B1: Camptothecin-rvGly-Suc-(Doc)4-Aepa-Gaba-D-Ser-D-Tyr-Gln-Trp-Ala-Val-β-Ala-His-Leu-Nle-NH2 (peptide)
peptide: {Camptothecin-rvGly-Suc-AEEA-AEEA-AEEA-AEEA-Pipz(1-CH2CO,4-CH2CH2NH)}-[GABA][dS][dY]QWAV[βAla]HL[Nle]-NH2
modifications: reading uncertain; also: printed as Camptothecin-rvGly-Suc-(Doc)4-Aepa-Gaba-D-Ser-D-Tyr-Gln-Trp-Ala-Val-β-Ala-His-Leu-Nle-NH2
notes: Bombesin analog conjugate
[2]
  Ki: 4.82 nM

B2: Camptothecin-rvGly-Suc-(Doc)4-Lys-D-Ser-D-Tyr-Gln-Trp-Ala-Val-β-Ala-His-Leu-Nle-NH2 (peptide)
peptide: {Camptothecin-rvGly-Suc-AEEA-AEEA-AEEA-AEEA}-K[dS][dY]QWAV[βAla]HL[Nle]-NH2
modifications: reading uncertain; also: printed as Camptothecin-rvGly-Suc-(Doc)4-Lys-D-Ser-D-Tyr-Gln-Trp-Ala-Val-β-Ala-His-Leu-Nle-NH2
notes: Bombesin analog conjugate
[2]
  Ki: 1.45 nM

B3: Camptothecin-rvGly-Suc-(Doc)4-Arg-D-Ala-D-Tyr-Gln-Trp-Ala-Val-β-Ala-His-Leu-Nle-NH2 (peptide)
peptide: {Camptothecin-rvGly-Suc-AEEA-AEEA-AEEA-AEEA}-R[dA][dY]QWAV[βAla]HL[Nle]-NH2
modifications: reading uncertain; also: printed as Camptothecin-rvGly-Suc-(Doc)4-Arg-D-Ala-D-Tyr-Gln-Trp-Ala-Val-β-Ala-His-Leu-Nle-NH2
notes: Bombesin analog conjugate
[2]
  Ki: 1.1 nM

## Camptothecin-[rvGly][Suc][AEEA][AEEA][AEEA][AEEA][Pipz(1-CH2CO,4-CH2CH2NH)][GABA]NQWAV[βAla]HL[Nle]-NH2 [Camptothecin-rvGly-Suc-(Doc)4-Aepa-Gaba-Asn-Gln-Trp-Ala-Val-β-Ala-His-Leu-Nle-NH2]
[1]
  Ki: 7.65 nM

## {Camptothecin-rvGly-Glut-AEEA-AEEA-AEEA-AEEA-AEEA-AEEA}-K[dY][dY]C[Tyr(3-I)][dW]K[Abu]CT-NH2 (disulfide 4-9; reading uncertain) [Camptothecin-rvGly-Glut-(Doc)6-Lys-D-Tyr-D-Tyr-c(Cys-3-(I)Tyr-D-Trp-Lys-Abu-Cys)-Thr-NH2]
[3]
  Ki: 3 nM
[4]
  Ki: 125 nM
[5]
  Ki: 0.36 nM

## {Camptothecin-rvGly-Glut-AEEA-AEEA-AEEA-AEEA}-K[dY][dY]CFF[dW]KTC-NH2 (disulfide 4-10; reading uncertain) [Camptothecin-rvGly-Glut-(Doc)4-Lys-D-Tyr-D-Tyr-c(Cys-Phe-Phe-D-Trp-Lys-Thr-Cys)-NH2]
[3]
  Ki: 481 nM
[5]
  Ki: 9.38 nM

## Camptothecin-[rvGly][Suc][AEEA][AEEA][AEEA][AEEA][Pipz(1-CH2CO,4-CH2CH2NH)][Nle]QWAV[βAla]HL[Nle]-NH2 [Camptothecin-rvGly-Suc-(Doc)4-Aepa-Nle-Gln-Trp-Ala-Val-β-Ala-His-Leu-Nle-NH2]
[1]
  Ki: 4.57 nM

B4: Camptothecin-rvGly-Suc-(Doc)4-Aepa-Apn-Asn-Gln-Trp-Ala-Val-β-Ala-His-Leu-Nle-NH2 (peptide)
peptide: Camptothecin-[rvGly][Suc][AEEA][AEEA][AEEA][AEEA][Pipz(1-CH2CO,4-CH2CH2NH)][Apn]NQWAV[βAla]HL[Nle]-NH2
modifications: reading uncertain; also: printed as Camptothecin-rvGly-Suc-(Doc)4-Aepa-Apn-Asn-Gln-Trp-Ala-Val-β-Ala-His-Leu-Nle-NH2
[1]
  Ki: 4.07 nM

## {Camptothecin-rvGly-Glut-AEEA-AEEA-AEEA-AEEA}-K[dY][dY]C[Tyr(3-I)][dW]K[Abu]CT-NH2 (disulfide 4-9; reading uncertain) [Camptothecin-rvGly-Glut-(Doc)4-Lys-D-Tyr-D-Tyr-c(Cys-3-(I)Tyr-D-Trp-Lys-Abu-Cys)-Thr-NH2]
[3]
  Ki: 3.86 nM
[4]
  Ki: 94 nM
[5]
  Ki: 0.1 nM

## Camptothecin-[rvGly][Suc][AEEA][AEEA][AEEA][AEEA][Pipz(1-CH2CO,4-CH2CH2NH)]L[GABA]QWAV[βAla]HL[Nle]-NH2 [Camptothecin-rvGly-Suc-(Doc)4-Aepa-Leu-Gaba-Gln-Trp-Ala-Val-β-Ala-His-Leu-Nle-NH2]
[1]
  Ki: 18.2 nM

B5: Camptothecin-rvGly-Suc-(Doc)4-Aepa-D-Ser-D-Tyr-Gln-Trp-Ala-Val-β-Ala-His-Leu-Nle-NH2 (peptide)
peptide: {Camptothecin-rvGly-Suc-AEEA-AEEA-AEEA-AEEA-Pipz(1-CH2CO,4-CH2CH2NH)}-[dS][dY]QWAV[βAla]HL[Nle]-NH2
modifications: reading uncertain; also: printed as Camptothecin-rvGly-Suc-(Doc)4-Aepa-D-Ser-D-Tyr-Gln-Trp-Ala-Val-β-Ala-His-Leu-Nle-NH2
[1]
  Ki: 3.96 nM
